The assay concerns the target EBOV GP[change] (Ebola virus) (UniProt Q05320).

Results on twelve molecules are retold here after patent US20180244758A1.

EBOV GP[change] (Ebola virus), sequence (Q05320 33-501, chain 1 of 2): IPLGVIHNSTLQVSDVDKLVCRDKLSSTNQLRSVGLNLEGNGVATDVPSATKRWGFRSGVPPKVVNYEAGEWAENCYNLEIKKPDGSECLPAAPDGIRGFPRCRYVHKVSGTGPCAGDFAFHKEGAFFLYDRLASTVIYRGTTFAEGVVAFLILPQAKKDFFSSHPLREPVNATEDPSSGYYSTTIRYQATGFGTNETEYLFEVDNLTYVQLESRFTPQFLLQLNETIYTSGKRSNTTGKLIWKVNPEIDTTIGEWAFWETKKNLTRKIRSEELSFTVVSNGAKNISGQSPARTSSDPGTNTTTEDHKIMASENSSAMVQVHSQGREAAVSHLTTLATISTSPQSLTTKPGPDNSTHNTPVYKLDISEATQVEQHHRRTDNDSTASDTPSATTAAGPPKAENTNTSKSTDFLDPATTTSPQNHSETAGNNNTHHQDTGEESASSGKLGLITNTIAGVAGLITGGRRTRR
EBOV GP[change] (Ebola virus), sequence (Q05320 502-650, chain 2 of 2): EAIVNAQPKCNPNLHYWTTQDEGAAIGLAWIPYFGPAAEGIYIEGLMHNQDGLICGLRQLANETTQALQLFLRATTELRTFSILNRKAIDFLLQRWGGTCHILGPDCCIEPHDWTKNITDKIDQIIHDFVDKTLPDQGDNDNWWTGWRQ

B1: mAb PE-87 (antibody, V domains shown)
VH: QVQLVQSGVTLVQPGGSLRVSCAASGFTFSSYAMSWVRQAPGKGLEWVSAISGLGGSTYYADSVKGRFTISRDNSKNTLYLQMNSLRAEDTAVYYCAKDHRVWAAGYHFDYWGQGALVTVSS
VL: DIVLTQSPSTLSASVGDRVTITCRASQSISSWLAWYQQKPGEAPKLLISDASSLESGVPSRFSGSGSGTEFTLTISSLQPDDFATYYCQQYYSSPTFGGGTKVEIK
Broadly, the Kd is the equilibrium constant for the complex coming apart. With B1, the Kd was below 0.001 nM.

B2: PE-87 D99A (antibody, V domains shown)
VH: QVQLVQSGVTLVQPGGSLRVSCAASGFTFSSYAMSWVRQAPGKGLEWVSAISGLGGSTYYADSVKGRFTISRDNSKNTLYLQMNSLRAEDTAVYYCAKAHRVWAAGYHFDYWGQGALVTVSS
VL: DIVLTQSPSTLSASVGDRVTITCRASQSISSWLAWYQQKPGEAPKLLISDASSLESGVPSRFSGSGSGTEFTLTISSLQPDDFATYYCQQYYSSPTFGGGTKVEIK
B2 displayed an equilibrium dissociation constant (Kd) of 74 nM.

B3: PE-87 Y107A (antibody, V domains shown)
VH: QVQLVQSGVTLVQPGGSLRVSCAASGFTFSSYAMSWVRQAPGKGLEWVSAISGLGGSTYYADSVKGRFTISRDNSKNTLYLQMNSLRAEDTAVYYCAKDHRVWAAGAHFDYWGQGALVTVSS
VL: DIVLTQSPSTLSASVGDRVTITCRASQSISSWLAWYQQKPGEAPKLLISDASSLESGVPSRFSGSGSGTEFTLTISSLQPDDFATYYCQQYYSSPTFGGGTKVEIK
With B3, the Kd amounted to 30 nM.

B4: PE-87 H100A (antibody, V domains shown)
VH: QVQLVQSGVTLVQPGGSLRVSCAASGFTFSSYAMSWVRQAPGKGLEWVSAISGLGGSTYYADSVKGRFTISRDNSKNTLYLQMNSLRAEDTAVYYCAKDARVWAAGYHFDYWGQGALVTVSS
VL: DIVLTQSPSTLSASVGDRVTITCRASQSISSWLAWYQQKPGEAPKLLISDASSLESGVPSRFSGSGSGTEFTLTISSLQPDDFATYYCQQYYSSPTFGGGTKVEIK
Regarding B4, the Kd was 4.5 nM.

B5: PE-87 D110A (antibody, V domains shown)
VH: QVQLVQSGVTLVQPGGSLRVSCAASGFTFSSYAMSWVRQAPGKGLEWVSAISGLGGSTYYADSVKGRFTISRDNSKNTLYLQMNSLRAEDTAVYYCAKDHRVWAAGYHFAYWGQGALVTVSS
VL: DIVLTQSPSTLSASVGDRVTITCRASQSISSWLAWYQQKPGEAPKLLISDASSLESGVPSRFSGSGSGTEFTLTISSLQPDDFATYYCQQYYSSPTFGGGTKVEIK
Turning to B5, the Kd was found to be 1.3 nM.

B6: PE-87 V102A (antibody, V domains shown)
VH: QVQLVQSGVTLVQPGGSLRVSCAASGFTFSSYAMSWVRQAPGKGLEWVSAISGLGGSTYYADSVKGRFTISRDNSKNTLYLQMNSLRAEDTAVYYCAKDHRAWAAGYHFDYWGQGALVTVSS
VL: DIVLTQSPSTLSASVGDRVTITCRASQSISSWLAWYQQKPGEAPKLLISDASSLESGVPSRFSGSGSGTEFTLTISSLQPDDFATYYCQQYYSSPTFGGGTKVEIK
B6: the Kd worked out at 4 nM.

B7: PE-87 R101A (antibody, V domains shown)
VH: QVQLVQSGVTLVQPGGSLRVSCAASGFTFSSYAMSWVRQAPGKGLEWVSAISGLGGSTYYADSVKGRFTISRDNSKNTLYLQMNSLRAEDTAVYYCAKDHAVWAAGYHFDYWGQGALVTVSS
VL: DIVLTQSPSTLSASVGDRVTITCRASQSISSWLAWYQQKPGEAPKLLISDASSLESGVPSRFSGSGSGTEFTLTISSLQPDDFATYYCQQYYSSPTFGGGTKVEIK
Regarding B7, the equilibrium dissociation constant (Kd) amounted to 9.4 nM.

B8: PE-87 H108A (antibody, V domains shown)
VH: QVQLVQSGVTLVQPGGSLRVSCAASGFTFSSYAMSWVRQAPGKGLEWVSAISGLGGSTYYADSVKGRFTISRDNSKNTLYLQMNSLRAEDTAVYYCAKDHRVWAAGYAFDYWGQGALVTVSS
VL: DIVLTQSPSTLSASVGDRVTITCRASQSISSWLAWYQQKPGEAPKLLISDASSLESGVPSRFSGSGSGTEFTLTISSLQPDDFATYYCQQYYSSPTFGGGTKVEIK
As for B8, the Kd is 18 nM.

B9: PE-87 W103A (antibody, V domains shown)
VH: QVQLVQSGVTLVQPGGSLRVSCAASGFTFSSYAMSWVRQAPGKGLEWVSAISGLGGSTYYADSVKGRFTISRDNSKNTLYLQMNSLRAEDTAVYYCAKDHRVAAAGYHFDYWGQGALVTVSS
VL: DIVLTQSPSTLSASVGDRVTITCRASQSISSWLAWYQQKPGEAPKLLISDASSLESGVPSRFSGSGSGTEFTLTISSLQPDDFATYYCQQYYSSPTFGGGTKVEIK
Turning to B9, the Kd was determined as 1.3 nM.

B10: PE-87 Y111A (antibody, V domains shown)
VH: QVQLVQSGVTLVQPGGSLRVSCAASGFTFSSYAMSWVRQAPGKGLEWVSAISGLGGSTYYADSVKGRFTISRDNSKNTLYLQMNSLRAEDTAVYYCAKDHRVWAAGYHFDAWGQGALVTVSS
VL: DIVLTQSPSTLSASVGDRVTITCRASQSISSWLAWYQQKPGEAPKLLISDASSLESGVPSRFSGSGSGTEFTLTISSLQPDDFATYYCQQYYSSPTFGGGTKVEIK
B10 displayed a Kd of 5.9 nM.

B11: PE-87 G106A (antibody, V domains shown)
VH: QVQLVQSGVTLVQPGGSLRVSCAASGFTFSSYAMSWVRQAPGKGLEWVSAISGLGGSTYYADSVKGRFTISRDNSKNTLYLQMNSLRAEDTAVYYCAKDHRVWAAAYHFDYWGQGALVTVSS
VL: DIVLTQSPSTLSASVGDRVTITCRASQSISSWLAWYQQKPGEAPKLLISDASSLESGVPSRFSGSGSGTEFTLTISSLQPDDFATYYCQQYYSSPTFGGGTKVEIK
Molecule B11 gave a Kd of 0.03 nM.

B12: PE-87 F109A (antibody, V domains shown)
VH: QVQLVQSGVTLVQPGGSLRVSCAASGFTFSSYAMSWVRQAPGKGLEWVSAISGLGGSTYYADSVKGRFTISRDNSKNTLYLQMNSLRAEDTAVYYCAKDHRVWAAGYHADYWGQGALVTVSS
VL: DIVLTQSPSTLSASVGDRVTITCRASQSISSWLAWYQQKPGEAPKLLISDASSLESGVPSRFSGSGSGTEFTLTISSLQPDDFATYYCQQYYSSPTFGGGTKVEIK
As for B12, the equilibrium dissociation constant (Kd) was found to be 37 nM.
